B1: DnaJ homolog subfamily C member 5, residues 16 to 77; numbered along this chain, Q9H3Z4 (parent)
chain: LYHVLGLDKNATSDDIKKSYRKLALKYHPDKNPDNPEAADKFKEINNAHAILTDATKRNIYD

± gives the uncertainty stated by the source.

Variants of B1 are the subject of the data set. Briefly: abundance fitness (aPCA) (normalised: wild type 0, dead -1); higher = more abundant; growth selection in yeast, the domain comes from the species named. The settings on record: Homo sapiens.
For the variant LYHVLGLDKNATSDDIKKSYRKLALKYHDDKNPDNPEAADKFKEINNAHAILTDATKRNIYD [P29D], the abundance fitness was -0.111 ± 0.092.

Consider LYHVLGLDKNATSDDIKKSYRKLALKYHADKNPDNPEAADKFKEINNAHAILTDATKRNIYD [P29A], for which the abundance fitness is -0.053 ± 0.071.

As to LYHVLGLDKNATSDDIKKSYRKLALKYHCDKNPDNPEAADKFKEINNAHAILTDATKRNIYD [P29C], the abundance fitness was -0.42 ± 0.11.

Regarding LYHVLGLDKNATSDDIKKSYRKLALSYHPDKNPDNPEAADKFKEINNAHAILTDATKRNIYD [K26S], the abundance fitness is -0.211 ± 0.079.

In the case of LYHVLGLDKNATSDDIKKSYRKLALQYHPDKNPDNPEAADKFKEINNAHAILTDATKRNIYD [K26Q], the abundance fitness turned out to be 0.032 ± 0.11.

For LYHVLGLDKNATSDDIKKSYRKLALRYHPDKNPDNPEAADKFKEINNAHAILTDATKRNIYD [K26R], the abundance fitness is -0.214 ± 0.084.

As to LYHVLGLDKNATSDDIKKSYRKLALNYHPDKNPDNPEAADKFKEINNAHAILTDATKRNIYD [K26N], the abundance fitness is -0.358 ± 0.11.

As to LYHVLGLDKNATSDDIKKSYRKLALWYHPDKNPDNPEAADKFKEINNAHAILTDATKRNIYD [K26W], the abundance fitness was -0.477 ± 0.094.

With LYHVLGLDKNATSDDIKKSYRKLALPYHPDKNPDNPEAADKFKEINNAHAILTDATKRNIYD [K26P], the abundance fitness is -0.264 ± 0.13.

Regarding LYHVLGLDKNATSDDIKKSYRKLALVYHPDKNPDNPEAADKFKEINNAHAILTDATKRNIYD [K26V], the abundance fitness is -0.13 ± 0.06.

For LYHVLGLDKNATSDDIKKSYRKLALTYHPDKNPDNPEAADKFKEINNAHAILTDATKRNIYD [K26T], the abundance fitness was -0.189 ± 0.11.

On to LYHVLGLDKNATSDDIKKSYRKLALKYQPDKNPDNPEAADKFKEINNAHAILTDATKRNIYD [H28Q], for which the abundance fitness was 0.34 ± 0.34.

LYHVLGLDKNATSDDIKKSYRKLALKYEPDKNPDNPEAADKFKEINNAHAILTDATKRNIYD [H28E]: the abundance fitness was 0.179 ± 0.29.

Regarding LYHVLGLDKNATSDDIKKSYRKLALKYDPDKNPDNPEAADKFKEINNAHAILTDATKRNIYD [H28D], the abundance fitness was determined as 0.062 ± 0.16.

Turning to LYHVLGLDKNATSDDIKKSYRKLALKYAPDKNPDNPEAADKFKEINNAHAILTDATKRNIYD [H28A], the abundance fitness was -0.06 ± 0.26.

For LYHVLGLDKNATSDDIKKSYRKLALKYVPDKNPDNPEAADKFKEINNAHAILTDATKRNIYD [H28V], the abundance fitness was -0.459 ± 0.17.

Consider LYHVLGLDKNATSDDIKKSYRKLALKYRPDKNPDNPEAADKFKEINNAHAILTDATKRNIYD [H28R], for which the abundance fitness was -0.194 ± 0.17.

As for LYHVLGLDKNATSDDIKKSYRKLALKYLPDKNPDNPEAADKFKEINNAHAILTDATKRNIYD [H28L], the abundance fitness is -0.536 ± 0.16.

Regarding LYHVLGLDKNATSDDIKKSYRKLALKYWPDKNPDNPEAADKFKEINNAHAILTDATKRNIYD [H28W], the abundance fitness was -0.474 ± 0.35.

As for LYHVLGLDKNATSDDIKKSYRKLALKYCPDKNPDNPEAADKFKEINNAHAILTDATKRNIYD [H28C], the abundance fitness was -0.29 ± 0.29.

Consider LYHVLGLDKNATSDDIKKSYRKLALKYFPDKNPDNPEAADKFKEINNAHAILTDATKRNIYD [H28F], for which the abundance fitness was -0.541 ± 0.28.

Take LYHVLGLDKNATSDDIKKSYRKLALKYGPDKNPDNPEAADKFKEINNAHAILTDATKRNIYD [H28G]: the abundance fitness was -0.037 ± 0.12.

Take LYHVLGLDKNATSDDIKKSYRKLALKYSPDKNPDNPEAADKFKEINNAHAILTDATKRNIYD [H28S]: the abundance fitness turned out to be 0.219 ± 0.15.

For the variant LYHVLGLDKNATSDDIKKSYRKLALKYYPDKNPDNPEAADKFKEINNAHAILTDATKRNIYD [H28Y], the abundance fitness is -0.409 ± 0.13.

As for LYHVLGLDKNATSDDIKKSYRKLALKYKPDKNPDNPEAADKFKEINNAHAILTDATKRNIYD [H28K], the abundance fitness came out at 0.134 ± 0.2.

Take LYHVLGLDKNATSDDIKKSYRKLALKTHPDKNPDNPEAADKFKEINNAHAILTDATKRNIYD [Y27T]: the abundance fitness was -0.157 ± 0.16.

As to LYHVLGLDKNATSDDIKKSYRKLALKVHPDKNPDNPEAADKFKEINNAHAILTDATKRNIYD [Y27V], the abundance fitness is -0.571 ± 0.095.

Take LYHVLGLDKNATSDDIKKSYRKLALKIHPDKNPDNPEAADKFKEINNAHAILTDATKRNIYD [Y27I]: the abundance fitness was -0.715 ± 0.22.

With LYHVLGLDKNATSDDIKKSYRKLALKMHPDKNPDNPEAADKFKEINNAHAILTDATKRNIYD [Y27M], the abundance fitness is -0.196 ± 0.12.

In the case of LYHVLGLDKNATSDDIKKSYRKLALKFHPDKNPDNPEAADKFKEINNAHAILTDATKRNIYD [Y27F], the abundance fitness came to 0.185 ± 0.14.

For LYHVLGLDKNATSDDIKKSYRKLALKDHPDKNPDNPEAADKFKEINNAHAILTDATKRNIYD [Y27D], the abundance fitness is -0.316 ± 0.12.

In the case of LYHVLGLDKNATSDDIKKSYRKLALKCHPDKNPDNPEAADKFKEINNAHAILTDATKRNIYD [Y27C], the abundance fitness was -0.239 ± 0.19.

Regarding LYHVLGLDKNATSDDIKKSYRKLALKAHPDKNPDNPEAADKFKEINNAHAILTDATKRNIYD [Y27A], the abundance fitness was -0.344 ± 0.1.

As for LYHVLGLDKNATSDDIKKSYRKLALKRHPDKNPDNPEAADKFKEINNAHAILTDATKRNIYD [Y27R], the abundance fitness was -0.543 ± 0.079.

On to LYHVLGLDKNATSDDIKKSYRKLALKKHPDKNPDNPEAADKFKEINNAHAILTDATKRNIYD [Y27K], for which the abundance fitness was -0.379 ± 0.12.

For the variant LYHVLGLDKNATSDDIKKSYRKLALKNHPDKNPDNPEAADKFKEINNAHAILTDATKRNIYD [Y27N], the abundance fitness is -0.83 ± 0.36.

Take LYHVLGLDKNATSDDIKKSYRKLALKSHPDKNPDNPEAADKFKEINNAHAILTDATKRNIYD [Y27S]: the abundance fitness was -0.21 ± 0.083.

For LYHVLGLDKNATSDDIKKSYRKLALKWHPDKNPDNPEAADKFKEINNAHAILTDATKRNIYD [Y27W], the abundance fitness was 0.231 ± 0.099.

Take LYHVLGLDKNATSDDIKKSYRKLALKGHPDKNPDNPEAADKFKEINNAHAILTDATKRNIYD [Y27G]: the abundance fitness is -0.27 ± 0.077.

Turning to LYHVLGLDKNATSDDIKKSYRKLALKEHPDKNPDNPEAADKFKEINNAHAILTDATKRNIYD [Y27E], the abundance fitness is -0.07 ± 0.091.

Take LYHVLGLDKNATSDDIKKSYRKLALKLHPDKNPDNPEAADKFKEINNAHAILTDATKRNIYD [Y27L]: the abundance fitness was -0.326 ± 0.062.

Regarding LYHVLGLDKNATSDDIKKSYRKLALKHHPDKNPDNPEAADKFKEINNAHAILTDATKRNIYD [Y27H], the abundance fitness was 0.185 ± 0.24.

With LYHVLGLDKNATSDDIKKSYRKLALKPHPDKNPDNPEAADKFKEINNAHAILTDATKRNIYD [Y27P], the abundance fitness is -0.61 ± 0.16.

For the origin of these results see the Human Domainome abundance scans (Beltran et al. 2025).
